Results taken from EP3741773A1.

Target: cetuximab
Assay: SPR, immobilized cetuximab IgG (Figure 12)

Sequence of avidin saturated with biotinylated meditope (P02701 25-152): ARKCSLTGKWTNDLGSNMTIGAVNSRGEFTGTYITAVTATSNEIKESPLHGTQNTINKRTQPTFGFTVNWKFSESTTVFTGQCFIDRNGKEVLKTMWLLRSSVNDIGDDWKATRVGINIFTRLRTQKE

- fold reduction of the off-rate against the monovalent meditope: > 36 fold
Substance: avidin saturated with biotinylated meditope (from UniProt P02701 25-152)
